The data set has as its system T1, CC(C)(COP(=O)(O)OP(=O)(O)OC[C@H]1O[C@@H](n2cnc3c(N)ncnc32)[C@H](O)[C@@H]1OP(=O)(O)O)[C@@H](O)C(=O)NCCC(=O)NCCSC(=O)c1ccc2c(ccc3ccccc32)c1.
T1 construct: codon-optimized gene in pASG-IBA103, C-terminal twin-Strep-tag, E. coli BL21(DE3); 72 kDa monomer; FMN, FAD, [4Fe-4S]; primers encode N-terminal MKLFEPIK and C-terminal LAALH
As to the kind of experiment: LC/MS of dihydro-2-phenanthroyl-CoA formation, initial rates. It counts as biochemical, uncultured Desulfobacterium sp. The following applies: dithionite-reduced methyl viologen as electron donor, 1 mM NADH, 50 µM FMN, 1 mM FAD, 50 mM HEPES pH 7.5, 30 °C, anoxic, substrate varied 2-100 µM. An excerpt:
LC/MS of dihydro-2-phenanthroyl-CoA formation, initial rates on 2-phenanthroyl-CoA reductase

The results in this text go back to publication PMC12093976, “Characterization of 2-phenanthroyl-CoA reductase, an ATP-independent type III aryl-CoA reductase involved in anaerobic phenanthrene degradation” (Applied and Environmental Microbiology, 2025).

The Km is the concentration of substrate that gives half-maximal velocity. Broadly, the Vmax is the top rate of the reaction or transport when substrate is in excess. For the substance “2-phenanthroyl-CoA reductase (uncultured Desulfobacterium sp.)”, the Km worked out at 1.8 µM and the Vmax came to 7.9 µmol/min/mg.
